Source: the supplement of paper PMC7877785
± gives the uncertainty stated by the source.

Assay: self-splicing fitness, log relative to wild type (ln ratio); higher = more splicing; Tetrahymena group I intron in knt gene, E. coli kanamycin selection, DiMSum; sequences stand for … in CUCUCU…GGAGGGAAAAGUUAUCAGGCAUGCACCUGGUAGCUAGUCUUUAAACCAAUAGAUUGCAUCGGUUUAAAAGGCAAGACCGUCAAAUUGCGGGAAAGGGGUCAACAGCCGUUCAGUACCAAGUCUCAGGGGAAACUUUGAGAUGGCCUUGCAAAGGGUAUGGUAAUAAGCUGACGGACAUGGUCCUAACCACGCAGCCAAGUCCUAAGUCAACAGAUCUUCUGUUGAUAUGGAUGCAGUUCACAGACUAAAUGUCGGUCGGGGAAGAUGUAUUCUUCUCAUAAGAUAUAGUCGGACCUCUCCUUAAUGGGAGCUAGCGGAUGAAGUGAUGCAACACUGGAGCCGCUGGGAACUAAUUUGUAUGCGAAAGUAUAUUGAUUAGUUUUGGAGUACUCGUGGUCG
In short: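 Library with all eight P1ex-region intron nucleotides randomised, intron inside the knt kanamycin-resistance gene on pET-22b(+), in E. coli BL21(DE3). Cells grew overnight at 37°C or 30°C on LB agar with or without 25 μg/mL kanamycin (plus 100 μg/mL carbenicillin, 50 μM IPTG, 0.2% rhamnose), in six replicate transformations. Pooled colonies were amplicon-sequenced on Illumina HiSeq 2500. DiMSum fitness is the error-weighted combination of wild-type-normalised replicate fold changes, kanamycin versus none.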

Sequence	self-splicing fitness (ln) (30 °C)	self-splicing fitness (ln) (37 °C)
AAACAGCAAUAUUACGUGGA	-3.1 ± 0.14	-1.95 ± 0.1
UGUCAGCAAUAUUACGGACC	-0.173 ± 0.15	-2.33 ± 0.17
CCUGAGCAAUAUUACGCUUA	-2.31 ± 0.24	-2.27 ± 0.39
GGAUAGCAAUAUUACGAUAA	-1.51 ± 0.19	-1.46 ± 0.2
CUUCAGCAAUAUUACGAGUA	-1.21 ± 0.4	–
GUCCAGCAAUAUUACGAAAA	-1.1 ± 0.2	-0.701 ± 0.13
CGGUAGCAAUAUUACGGACU	-1.25 ± 0.16	-0.871 ± 0.2
CGAAAGCAAUAUUACGUUUC	-3.81 ± 0.2	-2.15 ± 0.16
CAUUAGCAAUAUUACGCCAG	-0.337 ± 0.094	0.267 ± 0.12
CGCCAGCAAUAUUACGCUAG	-2.94 ± 0.16	-2.4 ± 0.23
CGUCAGCAAUAUUACGCGGG	-3.87 ± 0.24	-2.94 ± 0.21
CAGCAGCAAUAUUACGGACA	-2.86 ± 0.17	-2.28 ± 0.17
AACCAGCAAUAUUACGUCAU	-1.23 ± 0.063	-1.14 ± 0.067
UAUCAGCAAUAUUACGCGGA	-0.964 ± 0.081	-0.0724 ± 0.076
UUGCAGCAAUAUUACGUACC	-3.54 ± 0.47	-2.55 ± 0.33
UCUCAGCAAUAUUACGCGGG	-1.7 ± 0.14	-1.4 ± 0.15
AAGCAGCAAUAUUACGUGAU	-2.39 ± 0.081	-1.49 ± 0.11
UAGCAGCAAUAUUACGGUCU	-1.22 ± 0.074	-1.24 ± 0.086
UUAGAGCAAUAUUACGUGAU	-3.95 ± 0.28	-2.52 ± 0.22
UUGAAGCAAUAUUACGGGAG	-1.2 ± 0.1	-0.884 ± 0.12
AUCGAGCAAUAUUACGAGCU	-2.36 ± 0.4	–
GUUAAGCAAUAUUACGGUAA	-1.5 ± 0.15	-1.28 ± 0.14
AGGGAGCAAUAUUACGGGUG	-4.12 ± 0.2	-2.54 ± 0.29
CCCCAGCAAUAUUACGCAUA	-2.67 ± 0.14	-2.4 ± 0.2
UAUUAGCAAUAUUACGGGAU	–	-2.61 ± 0.41

Sequence	self-splicing fitness (ln) (30 °C)	self-splicing fitness (ln) (37 °C)
ACGCAGCAAUAUUACGUAAU	-2.48 ± 0.083	-2.13 ± 0.12
UUUAAGCAAUAUUACGAGUC	–	-2.65 ± 0.48
CUCGAGCAAUAUUACGGAGU	-3.07 ± 0.22	-2.57 ± 0.31
GUGUAGCAAUAUUACGGCUG	-3.23 ± 0.23	-1.28 ± 0.25
GCACAGCAAUAUUACGUCAC	-3.68 ± 0.26	-2.42 ± 0.32
UUGAAGCAAUAUUACGACCA	-0.132 ± 0.12	0.61 ± 0.15
UAAUAGCAAUAUUACGGUCC	-2.53 ± 0.33	–
GACUAGCAAUAUUACGAAUU	-1.35 ± 0.092	-0.277 ± 0.11
ACAAAGCAAUAUUACGCACA	-0.593 ± 0.083	-0.0238 ± 0.099
CUAUAGCAAUAUUACGUGUU	-3.74 ± 0.16	-3.15 ± 0.27
CGGUAGCAAUAUUACGAGCA	-3.2 ± 0.31	-0.781 ± 0.17
UCACAGCAAUAUUACGGUGA	-3.99 ± 0.33	-2.77 ± 0.21
GUGUAGCAAUAUUACGUGUU	-3.14 ± 0.17	-1.58 ± 0.12
CAAGAGCAAUAUUACGGCAC	-4.28 ± 0.24	-2.53 ± 0.18
CCACAGCAAUAUUACGGUCA	-3.27 ± 0.21	-3.22 ± 0.34
UUUGAGCAAUAUUACGCCUC	–	-0.879 ± 0.39
UACCAGCAAUAUUACGUUGA	-1.61 ± 0.049	-0.796 ± 0.062
ACUUAGCAAUAUUACGCGAC	-2.91 ± 0.13	-2.06 ± 0.17
GCUCAGCAAUAUUACGGGUG	-0.435 ± 0.055	-0.211 ± 0.074
AUCUAGCAAUAUUACGCGUG	-1.23 ± 0.1	-1.01 ± 0.12
GCGAAGCAAUAUUACGCAGG	-3.06 ± 0.27	-2.39 ± 0.23
CAUAAGCAAUAUUACGAUGC	-3.14 ± 0.19	-2.34 ± 0.28
CGCCAGCAAUAUUACGACCG	-0.693 ± 0.083	-0.103 ± 0.12
UGAGAGCAAUAUUACGCAAG	-3.21 ± 0.32	-2.74 ± 0.44
GACUAGCAAUAUUACGGCGC	0.0438 ± 0.14	-0.0936 ± 0.17

Sequence	self-splicing fitness (ln) (30 °C)	self-splicing fitness (ln) (37 °C)
UAAUAGCAAUAUUACGGUUU	-2.92 ± 0.19	-1.39 ± 0.18
GAUUAGCAAUAUUACGAUUG	-1.71 ± 0.13	-0.919 ± 0.18
GCAUAGCAAUAUUACGUAGC	-4.39 ± 0.26	-2.15 ± 0.16
CCAUAGCAAUAUUACGACGG	-3.41 ± 0.14	-1.67 ± 0.13
CAGGAGCAAUAUUACGGAAC	-3.67 ± 0.43	–
UCGAAGCAAUAUUACGAAGG	-1.84 ± 0.21	-2.47 ± 0.33
GAACAGCAAUAUUACGAUAC	-0.825 ± 0.065	-0.127 ± 0.087
UAGAAGCAAUAUUACGGUUG	-1.79 ± 0.089	-0.948 ± 0.11
UGGUAGCAAUAUUACGUAAA	-1.01 ± 0.099	-0.497 ± 0.11
CACUAGCAAUAUUACGGCUC	-2.9 ± 0.17	-1.79 ± 0.3
GGAAAGCAAUAUUACGUUCG	-0.612 ± 0.097	-0.624 ± 0.14
CUACAGCAAUAUUACGCACU	-3.52 ± 0.21	-3.03 ± 0.4
CGACAGCAAUAUUACGUAGA	-3.57 ± 0.13	-2.12 ± 0.15
GCCCAGCAAUAUUACGUAUC	-0.98 ± 0.08	-1.18 ± 0.081
UUGUAGCAAUAUUACGCCUG	0.32 ± 0.14	0.399 ± 0.15
UCUGAGCAAUAUUACGCGGG	-3.91 ± 0.26	-2.29 ± 0.2
AGUGAGCAAUAUUACGCCCA	-3.28 ± 0.46	-2.42 ± 0.37
GUCUAGCAAUAUUACGCUCC	-1.44 ± 0.18	0.66 ± 0.2
UACGAGCAAUAUUACGCCGU	-2.69 ± 0.46	-2.21 ± 0.29
GGACAGCAAUAUUACGUUUC	-3.16 ± 0.28	-1.82 ± 0.32
GGUAAGCAAUAUUACGCCCC	-3.4 ± 0.45	–
GCACAGCAAUAUUACGAAGC	-2.52 ± 0.23	-0.749 ± 0.15
UCCUAGCAAUAUUACGUGGU	-2.53 ± 0.1	-1.38 ± 0.096
AUACAGCAAUAUUACGCCAA	-2.6 ± 0.19	-1.22 ± 0.18
AAGUAGCAAUAUUACGGGUU	-1.46 ± 0.13	-1.55 ± 0.17

Sequence	self-splicing fitness (ln) (30 °C)	self-splicing fitness (ln) (37 °C)
CCAUAGCAAUAUUACGGACU	-3.84 ± 0.33	-1.85 ± 0.29
UCAAAGCAAUAUUACGCGUC	-3.15 ± 0.14	-2.89 ± 0.18
GGGAAGCAAUAUUACGUCAG	-2.92 ± 0.33	-2.52 ± 0.33
UCCGAGCAAUAUUACGCAGG	-3.19 ± 0.17	-1.88 ± 0.19
GCGGAGCAAUAUUACGCGGG	-3.35 ± 0.38	-1.2 ± 0.24
CUAAAGCAAUAUUACGCUAU	-4.21 ± 0.31	-2.75 ± 0.3
CCGAAGCAAUAUUACGUCUU	-3.58 ± 0.15	-2.98 ± 0.21
CGUUAGCAAUAUUACGCCUU	-3.33 ± 0.43	-2.18 ± 0.19
UACAAGCAAUAUUACGACUU	-1.19 ± 0.081	-0.692 ± 0.097
CGUGAGCAAUAUUACGGGCA	-1.6 ± 0.12	-1.63 ± 0.16
GGAGAGCAAUAUUACGCAUC	-3.08 ± 0.28	-2.85 ± 0.43
GCAGAGCAAUAUUACGUCGA	–	-1.58 ± 0.21
GUCUAGCAAUAUUACGGUGU	-0.578 ± 0.046	-0.0594 ± 0.06
GCGUAGCAAUAUUACGAAUA	-0.7 ± 0.12	-1.13 ± 0.11
CGUGAGCAAUAUUACGUUCU	-2.74 ± 0.28	-2.2 ± 0.27
AUAUAGCAAUAUUACGAGGC	-2.74 ± 0.26	–
AUGCAGCAAUAUUACGGGUG	-3.33 ± 0.14	-1.62 ± 0.12
UAUAAGCAAUAUUACGUGAU	-1.89 ± 0.13	-1.45 ± 0.17
CAGUAGCAAUAUUACGUCCC	–	-1.76 ± 0.4
UGCAAGCAAUAUUACGACUA	0.0901 ± 0.093	0.525 ± 0.11
UAUUAGCAAUAUUACGCUAG	-2.36 ± 0.19	-0.845 ± 0.15
CUAGAGCAAUAUUACGGCCG	-0.252 ± 0.15	0.456 ± 0.27
ACCGAGCAAUAUUACGAAGC	-3.47 ± 0.36	-2.76 ± 0.36
